Laboratory results taken from article PMC3091828 (Biochemistry, 2011).

B1: CL-arrestin-3-F88C, bimane-labeled (natural protein, UniProt P32120-2 1-409, looked up)
chain: MGEKPGTRVFKKSSPNSKLTVYLGKRDFVDHLDKVDPVDGVVLVDPDYLKDRKVFVTLTVAFRYGREDLDVLGLSFRKDLFIANYQACPPTPNPPRPPTRLQERLLRKLGQHAHPFFFTIPQNLPSSVTLQPGPEDTGKALGVDFEIRAFVAKSLEEKSHKRNSVRLVIRKVQFAPEKPGPQPSAETTRHFLMSDRSLHLEASLDKELYYHGEPLNVNVHVTNNSTKTVKKIKVSVRQYADIVLFSTAQYKVPVAQVEQDDQVSPSSTFSKVYTITPLLSNNREKRGLALDGKLKHEDTNLASSTIVKEGANKEVLGILVSYRVKVKLVVSRGGDVSVELPFVLMHPKPHDHIALPRPQSAAPETDAPVDTNLIEFETNYATDDDIVFEDFARLRLKGLKDEDYDDQFS
modifications: monobromobimane label on the unique cysteine (F88C)
B2: CL-arrestin-1-F79C, bimane-labeled (natural protein)
chain: MKANKPAPNHVIFKKISRDKSVTIYLGKRDYIDHVERVEPVDGVVLVDPELVKGKRVYVSLTAAFRYGQEDIDVMGLSCRRDLYFSQVQVFPPVGASGATTRLQESLIKKLGANTYPFLLTFPDYLPSSVMLQPAPQDVGKSAGVDFEIKAFATHSTDVEEDKIPKKSSVRLLIRKVQHAPRDMGPQPRAEASWQFFMSDKPLRLAVSLSKEIYYHGEPIPVTVAVTNSTEKTVKKIKVLVEQVTNVVLYSSDYYIKTVAAEEAQEKVPPNSSLTKTLTLVPLLANNRERRGIALDGKIKHEDTNLASSTIIKEGIDKTVMGILVSYQIKVKLTVSGLLGELTSSEVATEVPFRLMHPQPEDPDTAKESFQDENFVFEEFARQNLKDAGEYKEEKTDQEAAMDE
modifications: monobromobimane label on the unique cysteine (F79C)

Biological target: MBP-parkin (UniProt O60260 1-465)
Experiment: fluorescence polarisation

Sequence of MBP-parkin (O60260 whole entry): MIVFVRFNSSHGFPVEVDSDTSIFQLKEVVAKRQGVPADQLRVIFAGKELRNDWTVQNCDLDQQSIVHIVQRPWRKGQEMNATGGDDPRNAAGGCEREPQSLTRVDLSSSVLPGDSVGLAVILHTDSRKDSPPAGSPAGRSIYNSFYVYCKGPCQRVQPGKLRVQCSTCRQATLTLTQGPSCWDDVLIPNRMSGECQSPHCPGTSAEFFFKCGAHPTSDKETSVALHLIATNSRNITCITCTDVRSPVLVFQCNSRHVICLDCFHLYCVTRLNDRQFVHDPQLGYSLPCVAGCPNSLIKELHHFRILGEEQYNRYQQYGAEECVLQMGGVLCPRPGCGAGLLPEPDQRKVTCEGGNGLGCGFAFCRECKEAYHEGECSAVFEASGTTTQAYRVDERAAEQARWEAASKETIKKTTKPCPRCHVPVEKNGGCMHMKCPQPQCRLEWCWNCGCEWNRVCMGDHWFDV

| Binder | Kd [µM] |
| --- | --- |
| B1 | 3.36 |
| B2 | 15.5 |
